Measured values: publication PMC6545606

Columns and labels:
[1] = target: K48-linked diubiquitin (Homo sapiens) (UniProt P0CG47); conditions: cited from earlier work
ubiquitin (Homo sapiens) = ubiquitin (Homo sapiens) (UniProt P0CG47); conditions: cited from earlier work
[2] = target: K48-linked diubiquitin (ubiquitin_(K48R) joined to ubiquitin_(G76C)), fluorescently labelled (human) (UniProt P0CG47); test: other fluorescence titration
[3] = target: ubiquitin_(G76C), fluorescently labelled (human) (UniProt P0CG47); test: other fluorescence titration
[4] = target: K63-linked diubiquitin (ubiquitin_(K63R) joined to ubiquitin_(G76C)), fluorescently labelled (human) (UniProt P0CG47); test: other fluorescence titration

Chain of S5a (P55036 whole entry): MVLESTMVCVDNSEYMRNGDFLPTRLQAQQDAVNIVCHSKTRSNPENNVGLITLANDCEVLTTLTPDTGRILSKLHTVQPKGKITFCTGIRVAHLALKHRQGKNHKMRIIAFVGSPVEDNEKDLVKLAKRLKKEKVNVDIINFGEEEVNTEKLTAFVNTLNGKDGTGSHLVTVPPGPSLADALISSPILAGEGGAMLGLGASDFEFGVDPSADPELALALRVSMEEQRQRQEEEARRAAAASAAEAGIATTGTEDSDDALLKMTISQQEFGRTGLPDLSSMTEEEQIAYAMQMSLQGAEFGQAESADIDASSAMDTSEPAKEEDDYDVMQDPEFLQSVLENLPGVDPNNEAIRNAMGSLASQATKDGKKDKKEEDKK

Substance	Kd [1] [µM]	Kd (ubiquitin (Homo sapiens)) [µM]	Kd [2] [µM]	Kd [3] [µM]	Kd [4] [µM]
S5a (from UniProt P55036)	8.9	73			
StoD (S. Typhi outer protein D), full-length, untagged (enzyme)			15	55	5.6
